From the Human Domainome abundance scans (Beltran et al. 2025)
± gives the uncertainty stated by the source.

B1: Homeobox protein cut-like 1, residues 941 to 1008; numbered along this chain, P39880 (parent)
chain: QEVDTIELTRQVKEKLAKNGICQRIFGEKVLGLSQGSVSDMLSRPKPWSKLTQKGREPFIRMQLWLNG

Variants of: B1
Assay: abundance fitness (aPCA) (normalised: wild type 0, dead -1); higher = more abundant; growth selection in yeast, the domain comes from the species named
Conditions: Homo sapiens

In order of rising abundance fitness:
1. D4V  -0.581 ± 0.052
2. D4L  -0.572 ± 0.048
3. E7I  -0.565 ± 0.37
4. I21D  -0.559 ± 0.17
5. D4W  -0.552 ± 0.078
6. V3W  -0.528 ± 0.085
7. D4I  -0.503 ± 0.095
8. E14H  -0.498 ± 0.23
9. I21A  -0.489 ± 0.089
10. I21G  -0.473 ± 0.071
11. V12C  -0.461 ± 0.35
12. Q11W  -0.448 ± 0.058
13. E14F  -0.443 ± 0.12
14. D4Y  -0.43 ± 0.074
15. I21H  -0.425 ± 0.11
16. I21C  -0.419 ± 0.1
17. E14Y  -0.418 ± 0.23
18. T5D  -0.412 ± 0.092
19. I21R  -0.402 ± 0.044
20. I21K  -0.381 ± 0.09
21. D4A  -0.376 ± 0.05
22. I6W  -0.368 ± 0.074
23. D4R  -0.368 ± 0.06
24. V12L  -0.359 ± 0.05
25. T5P  -0.354 ± 0.066
26. D4F  -0.35 ± 0.072
27. D4H  -0.346 ± 0.077
28. V12I  -0.338 ± 0.074
29. N19Y  -0.331 ± 0.12
30. T5G  -0.329 ± 0.05
31. D4Q  -0.328 ± 0.061
32. Q11C  -0.323 ± 0.064
33. I21P  -0.319 ± 0.071
34. D4G  -0.312 ± 0.066
35. Q11I  -0.308 ± 0.099
36. Q11D  -0.298 ± 0.096
37. V12F  -0.289 ± 0.077
38. I21N  -0.283 ± 0.15
39. V12N  -0.28 ± 0.11
40. Q11V  -0.274 ± 0.057
41. A17W  -0.269 ± 0.059
42. I6D  -0.268 ± 0.13
43. D4P  -0.265 ± 0.062
44. D4S  -0.261 ± 0.05
45. I6S  -0.259 ± 0.053
46. T5A  -0.253 ± 0.048
47. D4T  -0.25 ± 0.057
48. D4C  -0.243 ± 0.12
49. N19W  -0.234 ± 0.082
50. Q11N  -0.234 ± 0.095
51. V3Y  -0.227 ± 0.12
52. V12W  -0.226 ± 0.072
53. E14W  -0.221 ± 0.053
54. I21E  -0.22 ± 0.09
55. E14V  -0.214 ± 0.067
56. A17Y  -0.214 ± 0.12
57. A17G  -0.205 ± 0.049
58. L8C  -0.205 ± 0.094
59. I21T  -0.197 ± 0.063
60. T5Y  -0.192 ± 0.12
61. I21Q  -0.184 ± 0.072
62. V12K  -0.183 ± 0.086
63. V12T  -0.177 ± 0.062
64. T5I  -0.177 ± 0.11
65. T5S  -0.177 ± 0.056
66. T5W  -0.176 ± 0.06
67. V12Y  -0.175 ± 0.089
68. A17M  -0.171 ± 0.075
69. V12A  -0.171 ± 0.055
70. Q11G  -0.165 ± 0.057
71. A17T  -0.163 ± 0.069
72. I6L  -0.161 ± 0.045
73. L8W  -0.157 ± 0.078
74. E14G  -0.156 ± 0.064
75. A17C  -0.154 ± 0.089
76. D4M  -0.153 ± 0.056
77. E14L  -0.152 ± 0.059
78. Q11S  -0.152 ± 0.047
79. L8F  -0.152 ± 0.067
80. A17L  -0.148 ± 0.05
81. E14S  -0.143 ± 0.062
82. V12Q  -0.143 ± 0.083
83. Q11T  -0.142 ± 0.061
84. V12H  -0.142 ± 0.11
85. E14Q  -0.14 ± 0.083
86. T5L  -0.135 ± 0.045
87. V12R  -0.131 ± 0.052
88. Q11A  -0.13 ± 0.067
89. I6Y  -0.129 ± 0.081
90. Q11L  -0.125 ± 0.046
91. A17N  -0.123 ± 0.17
92. E14T  -0.121 ± 0.076
93. A17F  -0.116 ± 0.12
94. A17Q  -0.115 ± 0.077
95. I21F  -0.115 ± 0.11
96. Q11H  -0.114 ± 0.086
97. V12E  -0.113 ± 0.069
98. V3T  -0.112 ± 0.085
99. E14K  -0.111 ± 0.094
100. A17H  -0.108 ± 0.11
101. I21M  -0.1 ± 0.069
102. D4N  -0.097 ± 0.067
103. D4E  -0.093 ± 0.068
104. Q11P  -0.092 ± 0.077
105. I6C  -0.091 ± 0.08
106. V12S  -0.091 ± 0.059
107. I6N  -0.09 ± 0.1
108. L8Y  -0.089 ± 0.089
109. A17V  -0.087 ± 0.047
110. N19G  -0.087 ± 0.052
111. E14C  -0.086 ± 0.083
112. Q11R  -0.084 ± 0.039
113. V12M  -0.084 ± 0.095
114. I6F  -0.081 ± 0.073
115. I21L  -0.08 ± 0.046
116. V3S  -0.067 ± 0.058
117. A17E  -0.066 ± 0.073
118. E14N  -0.063 ± 0.21
119. E14R  -0.054 ± 0.045
120. I6R  -0.053 ± 0.045
121. V3R  -0.051 ± 0.061
122. I6G  -0.049 ± 0.063
123. V12D  -0.049 ± 0.079
124. I6V  -0.046 ± 0.061
125. N19A  -0.033 ± 0.053
126. L8Q  -0.032 ± 0.075
127. I6T  -0.029 ± 0.062
128. A17I  -0.022 ± 0.1
129. N19K  -0.019 ± 0.08
130. A17R  -0.011 ± 0.052
131. V12G  -0.01 ± 0.063
132. L8R  -0.01 ± 0.055
133. V12P  -0.008 ± 0.065
134. L8P  -0.007 ± 0.062
135. I6H  -0.005 ± 0.095
136. L8S  -0.002 ± 0.051
137. I21W  0 ± 0.052
138. L8T  0.003 ± 0.062
139. E14P  0.005 ± 0.07
140. L8E  0.011 ± 0.083
141. L8N  0.011 ± 0.092
142. A17D  0.014 ± 0.098
143. N19M  0.017 ± 0.078
144. I21Y  0.019 ± 0.098
145. L8M  0.019 ± 0.06
146. N19V  0.023 ± 0.05
147. A17K  0.033 ± 0.091
148. N19T  0.034 ± 0.062
149. L8V  0.038 ± 0.064
150. L8G  0.039 ± 0.081
151. L8K  0.04 ± 0.078
152. N19Q  0.042 ± 0.061
153. N19P  0.043 ± 0.072
154. L8A  0.051 ± 0.069
155. I6M  0.06 ± 0.059
156. N19F  0.07 ± 0.094
157. N19I  0.075 ± 0.12
158. I6A  0.076 ± 0.062
159. L8D  0.076 ± 0.11
160. I6K  0.089 ± 0.068
161. N19E  0.098 ± 0.059
162. N19L  0.125 ± 0.052
163. L8I  0.131 ± 0.096
164. Q11K  0.132 ± 0.077
165. E7A  0.14 ± 0.47
166. N19D  0.17 ± 0.086
167. E7S  0.172 ± 0.3
